# Results from patent publication US20240252614A1.
# Key:
# Conditions in all cases: remark: other sources report otherwise
# hMPV075 (hMPV A), Q6WB98 [1] = experiment: BLI, no stress
# hMPV066 (hMPV A), Q6WB98 [2] = experiment: BLI, no stress
# hMPV086 (hMPV A), Q6WB98 = experiment: BLI, no stress
# hMPV082 (hMPV A), Q6WB98 = experiment: BLI, no stress
# hMPV084 (hMPV A), Q6WB98 = experiment: BLI, no stress
# hMPV081 (hMPV A), Q6WB98 = experiment: BLI, no stress
# hMPV089 (hMPV A), Q6WB98 = experiment: BLI, no stress
# hMPV079 (hMPV A), Q6WB98 = experiment: BLI, no stress
# hMPV087 (hMPV A), Q6WB98 = experiment: BLI, no stress
# hMPV085 (hMPV A), Q6WB98 = experiment: BLI, no stress
# hMPV078 (hMPV A), Q6WB98 = experiment: BLI, no stress
# hMPV083 (hMPV A), Q6WB98 = experiment: BLI, no stress
# hMPV090 (hMPV A), Q6WB98 = experiment: BLI, no stress
# hMPV088 (hMPV A), Q6WB98 = experiment: BLI, no stress
# [3] = biological target: hMPV A F WT Control (hMPV A), Q6WB98; experiment: BLI, no stress
# hMPV097 (hMPV A), Q6WB98 = experiment: BLI, no stress
# hMPV080 (hMPV A), Q6WB98 = experiment: BLI, 53C stress
# [4] = biological target: hMPV A F WT Control (hMPV A), Q6WB98; experiment: BLI, 53C stress
# hMPV047 (hMPV A), Q6WB98 = experiment: BLI, 50C stress
# hMPV075 (hMPV A), Q6WB98 [5] = experiment: BLI, 50C stress
# hMPV077 (hMPV A), Q6WB98 = experiment: BLI, 50C stress
# hMPV061 (hMPV A), Q6WB98 = experiment: BLI, 50C stress
# hMPV054 (hMPV A), Q6WB98 = experiment: BLI, 50C stress
# hMPV048 (hMPV A), Q6WB98 = experiment: BLI, 50C stress
# hMPV063 (hMPV A), Q6WB98 = experiment: BLI, 50C stress
# hMPV068 (hMPV A), Q6WB98 = experiment: BLI, 50C stress
# hMPV069 (hMPV A), Q6WB98 = experiment: BLI, 50C stress
# hMPV043 (hMPV A), Q6WB98 = experiment: BLI, 50C stress
# hMPV066 (hMPV A), Q6WB98 [6] = experiment: BLI, 50C stress
# hMPV046 (hMPV A), Q6WB98 = experiment: BLI, 50C stress
# hMPV059 (hMPV A), Q6WB98 = experiment: BLI, 50C stress
# hMPV071 (hMPV A), Q6WB98 = experiment: BLI, 50C stress
# hMPV055 (hMPV A), Q6WB98 = experiment: BLI, 50C stress
# hMPV049 (hMPV A), Q6WB98 = experiment: BLI, 50C stress
# hMPV058 (hMPV A), Q6WB98 = experiment: BLI, 50C stress
# hMPV060 (hMPV A), Q6WB98 = experiment: BLI, 50C stress
# hMPV050 (hMPV A), Q6WB98 = experiment: BLI, 50C stress
# hMPV044 (hMPV A), Q6WB98 = experiment: BLI, 50C stress
# [7] = biological target: hMPV A F WT Control (hMPV A), Q6WB98; experiment: BLI, 50C stress
# hMPV062 (hMPV A), Q6WB98 = experiment: BLI, 50C stress
# hMPV053 (hMPV A), Q6WB98 = experiment: BLI, 50C stress
# hMPV045 (hMPV A), Q6WB98 = experiment: BLI, 50C stress
# hMPV052 (hMPV A), Q6WB98 = experiment: BLI, 50C stress
# hMPV067 (hMPV A), Q6WB98 = experiment: BLI, 50C stress
binder,measurement,setting,value
"MPE8 mAb (antibody, V domains shown) VH: EVQLVESGGGLVKPGGSLRLSCAASGFTFSSYSMNWVRQAPGKGLEWVSSISASSSYSDYADSAKGRFTISRDNAKTSLFLQMNSLRAEDTAIYFCARARATGYSSITPYFDIWGQGTLVTVSS VL: QSVVTQTPSVSGAPGQRVTISCTGSSSNIGAGYDVHWYQQLPGTAPKLLIYDNNNRPSGVPDRFSASKSGTSASLAITGLQAEDEADYYCQSYDRNLSGVFGTGTKVTVL",Response Shift,"hMPV075 (hMPV A), Q6WB98 [1]",0.777 nm
same,Response Shift,"hMPV066 (hMPV A), Q6WB98 [2]",0.779 nm
same,Response Shift,"hMPV086 (hMPV A), Q6WB98",0.834 nm
same,Response Shift,"hMPV082 (hMPV A), Q6WB98",0.949 nm
same,Response Shift,"hMPV084 (hMPV A), Q6WB98",0.924 nm
same,Response Shift,"hMPV081 (hMPV A), Q6WB98",0.955 nm
same,Response Shift,"hMPV089 (hMPV A), Q6WB98",0.959 nm
same,Response Shift,"hMPV079 (hMPV A), Q6WB98",0.887 nm
same,Response Shift,"hMPV087 (hMPV A), Q6WB98",0.979 nm
same,Response Shift,"hMPV085 (hMPV A), Q6WB98",0.877 nm
same,Response Shift,"hMPV078 (hMPV A), Q6WB98",0.955 nm
same,Response Shift,"hMPV083 (hMPV A), Q6WB98",0.805 nm
same,Response Shift,"hMPV090 (hMPV A), Q6WB98",0.903 nm
same,Response Shift,"hMPV088 (hMPV A), Q6WB98",0.974 nm
same,Response Shift,[3],0.926 nm
same,Response Shift,"hMPV097 (hMPV A), Q6WB98",0.918 nm
same,Response Shift,"hMPV080 (hMPV A), Q6WB98",0.798 nm
same,Response Shift,[4],0.037 nm
same,Response Shift,"hMPV047 (hMPV A), Q6WB98",-0.024 nm
same,Response Shift,"hMPV075 (hMPV A), Q6WB98 [5]",0.506 nm
same,Response Shift,"hMPV077 (hMPV A), Q6WB98",0.472 nm
same,Response Shift,"hMPV061 (hMPV A), Q6WB98",0.537 nm
same,Response Shift,"hMPV054 (hMPV A), Q6WB98",0.381 nm
same,Response Shift,"hMPV048 (hMPV A), Q6WB98",0.377 nm
same,Response Shift,"hMPV063 (hMPV A), Q6WB98",0.57 nm
same,Response Shift,"hMPV068 (hMPV A), Q6WB98",0.194 nm
same,Response Shift,"hMPV069 (hMPV A), Q6WB98",0.355 nm
same,Response Shift,"hMPV043 (hMPV A), Q6WB98",0.501 nm
same,Response Shift,"hMPV066 (hMPV A), Q6WB98 [6]",0.666 nm
same,Response Shift,"hMPV046 (hMPV A), Q6WB98",0.412 nm
same,Response Shift,"hMPV059 (hMPV A), Q6WB98",0.344 nm
same,Response Shift,"hMPV071 (hMPV A), Q6WB98",0.671 nm
same,Response Shift,"hMPV055 (hMPV A), Q6WB98",0.098 nm
same,Response Shift,"hMPV049 (hMPV A), Q6WB98",0.343 nm
same,Response Shift,"hMPV058 (hMPV A), Q6WB98",0.403 nm
same,Response Shift,"hMPV060 (hMPV A), Q6WB98",0.712 nm
same,Response Shift,"hMPV050 (hMPV A), Q6WB98",0.14 nm
same,Response Shift,"hMPV044 (hMPV A), Q6WB98",0.722 nm
same,Response Shift,[7],0.174 nm
same,Response Shift,"hMPV062 (hMPV A), Q6WB98",0.253 nm
same,Response Shift,"hMPV053 (hMPV A), Q6WB98",0.422 nm
same,Response Shift,"hMPV045 (hMPV A), Q6WB98",0.139 nm
same,Response Shift,"hMPV052 (hMPV A), Q6WB98",0.482 nm
same,Response Shift,"hMPV067 (hMPV A), Q6WB98",0.571 nm
